Test results as given in patent US20170137467A1 (CHROMOTEK, published 2017).

T1: BC2T W10H peptide (BC2TW10X library) (human)
T1 construct: also called W10 permutant H
T1 peptide: Ac-PDRKAAVSHHQQ-NH2

T2: BC2T W10G peptide (BC2TW10X library) (human)
T2 construct: also called W10 permutant G
T2 peptide: Ac-PDRKAAVSHGQQ-NH2

T3: BC2T W10K peptide (BC2TW10X library) (human)
T3 construct: also called W10 permutant K
T3 peptide: Ac-PDRKAAVSHKQQ-NH2

T4: BC2T W10M peptide (BC2TW10X library) (human)
T4 construct: also called W10 permutant M
T4 peptide: Ac-PDRKAAVSHMQQ-NH2

T5: BC2T W10R peptide (BC2TW10X library) (human)
T5 construct: also called W10 permutant R
T5 peptide: Ac-PDRKAAVSHRQQ-NH2

T6: BC2T W10E library peptide (human)
T6 construct: also called BC2TW10X: E
T6 peptide: Ac-PDRKAAVSHEQQ-NH2

T7: BC2T W10V library peptide (human)
T7 construct: also called BC2TW10X: V
T7 peptide: Ac-PDRKAAVSHVQQ-NH2

T8: BC2T H9T library peptide (human)
T8 peptide: Ac-PDRKAAVSTWQQ-NH2

T9: BC2T H9E library peptide (human)
T9 peptide: Ac-PDRKAAVSEWQQ-NH2

T10: BC2T S8Y library peptide (human)
T10 construct: also called BC2TS8X: Y
T10 peptide: Ac-PDRKAAVYHWQQ-NH2

T11: BC2T H9W library peptide (human)
T11 peptide: Ac-PDRKAAVSWWQQ-NH2


Legend:
[1] = biological target: T1, BC2T W10H peptide (BC2TW10X library); assay: BC2TW10X library pulldown with immobilized Nb, LC-MS of the supernatant
Experimental: (§1) To investigate the binding specificity of the BC2T and derived mutants peptide libraries for each amino acid position of the sequence […] (SEQ ID NO:4) were synthesized with acetyl and amide groups located at the N-termini or C-termini respectively (Intavis). […] Incubations were performed in 300 μl PBS/0.01% CHAPS for 1 h on a HulaMixer (Life Technologies). Subsequent to a centrifugation step 10 μl supernatant were analyzed in a LC-MS procedure. Peptides were separated using an UltiMate3000 RSLCnano System (Thermo Scientific), composed of a C18 PepMap100μ-Precolumn (300 μm×5 mm; particle size: 5 μm; pore size: 100 Å—Thermo Scientific) and a C18 analytical column (Acclaim Rapid Separation LC (RSLC) Column: 150 mm×5 mm; particle size: 2.2 μm; pore size: 100 Å—Thermo Scientific). A step gradient was applied starting at 8% and ending after 20 min at 30% eluent B (80% acetonitrile, 20% H₂O, 0.1% formic acid). Peptides were analyzed using a FULL-MS-strategy detected by a Q Exactive Plus mass spectrometer (Thermo Scientific). As maximal injection time 100 ms was chosen while setting the AGC target to 3E6. The resolution was set to 70.000. Half-maximal signal areas were referenced to control precipitation approaches using a GFP-specific nanobody immobilized on agarose beads. All experiments were done in triplicates.

[2] = biological target: T2, BC2T W10G peptide (BC2TW10X library); assay: as above
Experimental: as §1

[3] = biological target: T3, BC2T W10K peptide (BC2TW10X library); assay: as above
Experimental: as §1

[4] = biological target: T4, BC2T W10M peptide (BC2TW10X library); assay: as above
Experimental: as §1

[5] = biological target: T5, BC2T W10R peptide (BC2TW10X library); assay: as above
Experimental: as §1

[6] = biological target: T12, eGFP-PCNA with C-terminal BC2 tag (eGFP-PCNABC2T) (human, UniProt P12004 1-261); assay: immunoprecipitation from HEK293T lysate, immunoblot with anti-PCNA
T12 construct: Expressed in HEK293T or HeLa cells; not shown: eGFP
Experimental: HEK293T cells transiently expressing eGFP, eGFPBC2T or BC2TeGFP, eGFP-PCNA, eGFP-PCNABC2T, mCherry-Vimentin, mCherry-VimentinBC2T were washed and harvested in phosphate buffered saline (PBS), snap-frozen in liquid nitrogen and stored at −20° C. Cell pellets were homogenized in 200 μl lysis buffer (10 mM Tris/Cl pH 7.5, 150 mM NaCl, 0.5% NP40, 1 μg DNaseI, 2 mM MgCl₂, 2 mM PMSF, 1× protease inhibitor mix M (Serva) by repeated pipetting for 40 min on ice. After a centrifugation step (10 min at 18.000×g) the protein concentration of each lysate was determined using a Pierce BCA Protein Assay Kit (Thermo Fisher Scientific) according to manufacturer's protocol and the protein solutions were adjusted with dilution buffer (10 mM Tris/Cl pH 7.5, 150 mM NaCl, 2 mM PMSF) to a concentration of 1 mg/ml. 2% of the supernatant were added to SDS-containing sample buffer (referred to as input). […] After a centrifugation step (2 min, 2500×g) the precleared supernatant was transferred to a new cup. 2% were added to SDS-containing sample buffer (referred to as non-bound). […] Samples were analyzed by SDS-PAGE followed by immunoblotting. Immunoblots were probed with indicated antibodies.

[7] = biological target: T6, BC2T W10E library peptide; assay: peptide library pulldown on immobilized Nb, LC-MS of supernatant; ratio vs GFP-Nb control (1 = not captured, 0 = captured)
Description: (§2) In total, 12 different BC2T libraries displaying all 20 proteinogenic amino acids in one single position of the peptide were used in immunoprecipitation experiments. […] The direct comparison with the GFP-Nb made it possible to determine the quantitative degree of peptide capture without the need of labeled standards. […] The more peptide was captured the more the value approximates 0. It was not possible to discriminate between isoleucine (I) and leucine (L) peptide versions since these peptides are isobaric.
as §1, with “acid).” for “acid). Peptides were analyzed using a FULL-MS-strategy detected by a Q Exactive Plus mass spectrometer (Thermo Scientific). As maximal injection time 100 ms was chosen while setting the AGC target to 3E6. The resolution was set to 70.000. Half-maximal signal areas were referenced to control precipitation approaches using a GFP-specific nanobody immobilized on agarose beads. All experiments were done in triplicates.”

[8] = biological target: T7, BC2T W10V library peptide; assay: as above
Description: as §2
as §1, with “acid).” for “acid). Peptides were analyzed using a FULL-MS-strategy detected by a Q Exactive Plus mass spectrometer (Thermo Scientific). As maximal injection time 100 ms was chosen while setting the AGC target to 3E6. The resolution was set to 70.000. Half-maximal signal areas were referenced to control precipitation approaches using a GFP-specific nanobody immobilized on agarose beads. All experiments were done in triplicates.”

BC2T H9T library peptide = biological target: T8, BC2T H9T library peptide; assay: as above
Description: as §2
as §1, with “acid).” for “acid). Peptides were analyzed using a FULL-MS-strategy detected by a Q Exactive Plus mass spectrometer (Thermo Scientific). As maximal injection time 100 ms was chosen while setting the AGC target to 3E6. The resolution was set to 70.000. Half-maximal signal areas were referenced to control precipitation approaches using a GFP-specific nanobody immobilized on agarose beads. All experiments were done in triplicates.”

BC2T H9E library peptide = biological target: T9, BC2T H9E library peptide; assay: as above
Description: as §2
as §1, with “acid).” for “acid). Peptides were analyzed using a FULL-MS-strategy detected by a Q Exactive Plus mass spectrometer (Thermo Scientific). As maximal injection time 100 ms was chosen while setting the AGC target to 3E6. The resolution was set to 70.000. Half-maximal signal areas were referenced to control precipitation approaches using a GFP-specific nanobody immobilized on agarose beads. All experiments were done in triplicates.”

BC2T S8Y library peptide = biological target: T10, BC2T S8Y library peptide; assay: as above
Description: as §2
as §1, with “acid).” for “acid). Peptides were analyzed using a FULL-MS-strategy detected by a Q Exactive Plus mass spectrometer (Thermo Scientific). As maximal injection time 100 ms was chosen while setting the AGC target to 3E6. The resolution was set to 70.000. Half-maximal signal areas were referenced to control precipitation approaches using a GFP-specific nanobody immobilized on agarose beads. All experiments were done in triplicates.”

BC2T H9W library peptide = biological target: T11, BC2T H9W library peptide; assay: as above
Description: as §2
as §1, with “acid).” for “acid). Peptides were analyzed using a FULL-MS-strategy detected by a Q Exactive Plus mass spectrometer (Thermo Scientific). As maximal injection time 100 ms was chosen while setting the AGC target to 3E6. The resolution was set to 70.000. Half-maximal signal areas were referenced to control precipitation approaches using a GFP-specific nanobody immobilized on agarose beads. All experiments were done in triplicates.”

T12 sequence (P12004 other isoform, or with tags, fused parts or gaps limits assumed): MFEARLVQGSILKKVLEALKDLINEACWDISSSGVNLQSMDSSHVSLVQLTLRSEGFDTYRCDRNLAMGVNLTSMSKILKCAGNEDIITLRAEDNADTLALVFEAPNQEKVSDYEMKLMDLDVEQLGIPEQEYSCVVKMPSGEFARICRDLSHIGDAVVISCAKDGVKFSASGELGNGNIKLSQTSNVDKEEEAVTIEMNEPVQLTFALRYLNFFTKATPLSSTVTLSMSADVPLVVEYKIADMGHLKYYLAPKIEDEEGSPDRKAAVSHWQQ

Row | Binder | binding result [1] | binding result [2] | binding result [3] | binding result [4] | binding result [5] | binding result [6] | ratio [7] | ratio [8] | ratio (BC2T H9T library peptide) | ratio (BC2T H9E library peptide) | ratio (BC2T S8Y library peptide) | ratio (BC2T H9W library peptide)
1 | BC2 nanobody (VHH, Alpaca VHH, 122 aa; also called BC2-Nb; BC2 nanotrap (BC2-Nb immobilized on agarose/Sepharose beads); not shown: C-terminal 6xHis-tag added by the pHEN6 vector) VHH: QVQLVESGGGLVQPGGSLTLSCTASGFTLDHYDIGWFRQAPGKEREGVSCINNSDDDTYYADSVKGRFTIFMDNAKDTVYLQMNSLKPEDTAIYYCAEARGCKRGRYEYDFWGQGTQVTVSS | no binding | no binding | no binding | no binding | no binding | binds | – | – | – | – | – | –
2 | BC2-Nb(R106E) (VHH, Headlock mutant; immobilized on beads in the library pulldown) VHH: QVQLVESGGGLVQPGGSLTLSCTASGFTLDHYDIGWFRQAPGKEREGVSCINNSDDDTYYADSVKGRFTIFMDNAKDTVYLQMNSLKPEDTAIYYCAEARGCKRGEYEYDFWGQGTQVTVSS | – | – | – | – | – | – | 1.2 | 1 | 0.4 | 0.5 | 0.9 | 0.1
